Several values for one entry are separate records, joined by “and”; a condition that tells them apart may be missing. Equal values may be shown once.
T1: human delta opioid peptide (DOP) receptor in CHO cells (human), P41143
T1 chain: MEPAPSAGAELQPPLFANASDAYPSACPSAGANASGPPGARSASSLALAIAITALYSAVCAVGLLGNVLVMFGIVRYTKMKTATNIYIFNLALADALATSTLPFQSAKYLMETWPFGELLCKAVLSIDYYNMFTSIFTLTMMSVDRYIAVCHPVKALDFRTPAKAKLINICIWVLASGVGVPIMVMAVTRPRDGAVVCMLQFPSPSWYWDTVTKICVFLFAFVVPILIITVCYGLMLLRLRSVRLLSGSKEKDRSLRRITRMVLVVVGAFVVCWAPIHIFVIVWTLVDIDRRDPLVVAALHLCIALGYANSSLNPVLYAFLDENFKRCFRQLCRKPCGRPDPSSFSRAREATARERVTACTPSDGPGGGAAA


How the values were obtained:
[1] = target: human MOP receptor in HEK293 cells (human), P35372
Chain of human MOP receptor in HEK293 cells (human), P35372 (P35372 whole entry): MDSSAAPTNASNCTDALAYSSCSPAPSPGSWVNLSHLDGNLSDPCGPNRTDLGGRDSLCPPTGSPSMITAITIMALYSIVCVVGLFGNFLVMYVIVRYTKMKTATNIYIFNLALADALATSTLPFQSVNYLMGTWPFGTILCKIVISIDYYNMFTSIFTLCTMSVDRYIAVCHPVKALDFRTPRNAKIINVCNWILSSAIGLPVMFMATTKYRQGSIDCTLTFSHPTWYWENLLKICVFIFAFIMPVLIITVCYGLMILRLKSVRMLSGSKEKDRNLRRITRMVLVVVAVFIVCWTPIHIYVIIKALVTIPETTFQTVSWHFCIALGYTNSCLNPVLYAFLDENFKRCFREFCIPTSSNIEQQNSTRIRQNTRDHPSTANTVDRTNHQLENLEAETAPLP

[2] = target: T2, human mu opioid peptide (MOP) receptor in CHO cells (human), P35372
T2 sequence (P35372 whole entry): as above

[3] = target: human KOP receptor in CHO cells (human), P41145; assay: radioligand binding
Chain of human KOP receptor in CHO cells (human), P41145 (P41145 whole entry): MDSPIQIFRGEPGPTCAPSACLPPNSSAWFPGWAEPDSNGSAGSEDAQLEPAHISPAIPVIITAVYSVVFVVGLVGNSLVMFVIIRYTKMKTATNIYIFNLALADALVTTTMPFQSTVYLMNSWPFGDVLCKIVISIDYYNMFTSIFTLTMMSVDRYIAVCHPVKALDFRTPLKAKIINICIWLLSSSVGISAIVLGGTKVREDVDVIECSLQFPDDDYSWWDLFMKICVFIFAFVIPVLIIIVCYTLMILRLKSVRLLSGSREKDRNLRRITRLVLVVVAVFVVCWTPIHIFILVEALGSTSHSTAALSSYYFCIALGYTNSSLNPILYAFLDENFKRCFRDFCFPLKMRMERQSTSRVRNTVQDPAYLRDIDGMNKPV

[4] = target: human MOP receptor in HEK293 cells (human), P35372; assay: radioligand binding
[5] = target: T1, human delta opioid peptide (DOP) …; assay: radioligand binding
[6] = target: T2, human mu opioid peptide (MOP) receptor …; assay: radioligand binding

Binder | GTPγ[35S] binding, HEKMOP membranes: Emax (stimulation factor) (stimulation factor) [1] | inhibition of forskolin-stimulated cAMP formation, HEKMOP cells: Emax (% inhibition) [1] | GTPγ[35S] binding, CHOMOP membranes: maximal response (stimulation factor) (stimulation factor) [2] | other [3] | other [4] | other [5] | other [6]
Dermorphin-UFP101 (De101) (modifications not checked) chain 1: YAFGYPS chain 2: FGGFTGARKSARKRKNQC | 1.44 | 73.3% | 2.71 | 7.61 | 9.28 and 8.63 | 7.95 | 9.64
Dermorphin-Nociceptin/Orphanin FQ (DeNO) (modifications not checked) chain 1: YAFGYPS chain 2: FGGFTGARKSARKLANQC | 1.53 | 77.3% |  |  | 9 and 8.44 |  | 
YAFGYPS (modifications not checked) [Dermorphin] | 1.43 | 75.6% | 2.63 |  |  |  | 
